Results on one substance are retold here after patent US20040006009A1.

For this experiment, the target named is MASP (MBL-associated serine proteases) purified from an MBL deficient individual. Description: cell-based or functional assay.

As for “recombinant human mannan binding lectin (MBL) (from UniProt P11226 21-248)”, the C4-activation compared to the reference N105-11A (EC50 = 100%); PE0407 5 mg/ml with 1 mM CaCl2, T = 2 months at +4° C. is 92%; the C4-activation compared to the reference N105-11A (EC50 = 100%); PE0407 5 mg/ml with 1 mM CaCl2, T = 2 months at +37° C. turned out to be 94%; the C4-activation compared to the reference N105-11A (EC50 = 100%); PE0407 5 mg/ml with 1 mM CaCl2, T = 2 months at -20° C. worked out at 91%; the C4-activation compared to the reference N105-11A (EC50 = 100%); control 5 mg/ml without calcium, T = 2 months at 37° C. amounted to 19%. The substance also showed a C4-activation, EC50% relative to a MBL standard; PE0305 10 mg/ml, T = 0 months (% relative to MBL standard) of 94; a C4-activation, EC50% relative to a MBL standard; PE0305 10 mg/ml, T = 2½ months at +4° C. (% relative to MBL standard) of 78; a C4-activation, EC50% relative to a MBL standard; PE0305 10 mg/ml, T = 2½ months at +37° C. (% relative to MBL standard) of 36; a C4-activation, EC50% relative to a MBL standard; PE0305 10 mg/ml, T = 2½ months at -20° C. (% relative to MBL standard) of 81. The substance further showed a C4-activation, EC50% relative to a MBL standard; PE0305 10 mg/ml, T = 5 months at +4° C. (% relative to MBL standard) of 80.3; a C4-activation, EC50% relative to a MBL standard; PE0305 10 mg/ml, T = 5 months at +37° C. (% relative to MBL standard) of 14.3; a C4-activation, EC50% relative to a MBL standard; PE0305 10 mg/ml, T = 5 months at -20° C. (% relative to MBL standard) of 81.7; a C4 activation assay, EC50 relative to reference (100%); PE0238 1 mg/ml, 12 months at +4 degree (% of reference) of 105. For the same substance, the C4 activation assay, EC50 relative to reference (100%); PE0238 1 mg/ml, 12 months at -20 degree (% of reference) stood at 104.
